Test results published in patent US20240092854A1 (WASHINGTON UNIVERSITY, published 2024).

Target: T1, murine NKG2D on NK cells / splenocytes (mouse, UniProt O54709 1-232)
T1 construct: whole, on cells; also called NKG2D receptor
T1 sequence: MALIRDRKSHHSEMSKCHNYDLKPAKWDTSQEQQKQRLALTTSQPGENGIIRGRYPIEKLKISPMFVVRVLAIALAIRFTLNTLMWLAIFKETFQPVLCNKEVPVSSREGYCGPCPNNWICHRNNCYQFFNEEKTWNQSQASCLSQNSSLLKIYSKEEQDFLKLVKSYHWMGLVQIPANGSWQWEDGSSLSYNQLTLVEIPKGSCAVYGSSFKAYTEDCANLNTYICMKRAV
Assay: flow cytometry, fluorescently labeled construct on bulk splenocytes at 37° C.

B1: OMCP-mutIL-2 (R38A, F42K, C125S IL2-OMCP construct) (other)
chain: HKLAFNFNLEINGSDTHSTVDVYLDDSQIITFDGKDIRPTIPFMIGDEIFLPFYKNVFSEFFSLFRRVPTSTPYEDLTYFYECDYTDNKSTFDQFYLYNGEEYTVKTQEATNKNMWLTTSEFRLKKWFDGEDCIMHLRSLVRKMEDSKRNTGGTGSSGSSDYKDDDDKHHHHHHHHGSSGSSAPTSSSTKKTQLQLEHLLLDLQMILNGINNYKNPKLTAMLTKKFYMPKKATELKHLQCLEEELKPLEEVLNLAQSKNFHLRPRDLISNINVIVLELKGSETTFMCEYADETATIVEFLNRWITFSQSIISTLT
notes: also called OMCP-mutant IL-2; OMCP-IL2 construct
B1: binds.
